Data on one substance can be found in article PMC7566563.

This series deals with Cglo-CDPS-S32A (Candidatus Glomeribacter gigasporarum) (UniProt G2JBB2). In words: EMSA. The following applies: 8 mM MgCl2; apparent Kd, 3 experiments; 3'-phenylalanylated; native E. coli modifications (s4U8, D16, D20, psi32, psi39, ms2i6A37, m7G46, acp3U47, T54, psi55); EMSA: 75 nM tRNA, 0.1-15 uM enzyme, 20 min at 4 C in buffer A (10 mM MOPS pH 6.7, 200 mM NaCl, 8 mM MgCl2, 5 mM 2-mercaptoethanol); native 12% gel in 90 mM ….

pKd: −log10 of the molar value.

As for Phe-tRNAPhe, the pKd is 5.80.
